Substitutions are numbered along the chain they refer to. “Also recorded” adds a separate entry of the source.
B1: SB 249413: humanized anti-Factor IX mAb, heavy chain F9HZHC 1-0 (SEQ ID NO: 31), light chain F9HZLC 1-0 (SEQ ID NO: 44) (antibody, V domains shown)
VH: QVQLVQSGSELKKPGASVKVSCKASGYTFTNYGMNWVRQAPGQGLEWMGWINTRNGKSTYVDDFKGRFVFSLDTSVSTAYLQISSLKADDTAVYYCAREGNMDGYFPFTYWGQGTLVTVSS
VL: EIVLTQSPATLSLSPGERATLSCRASSSVNYMHWYQQRPGQAPRLLIYATSNLASGIPARFSGSGSGTDFTLTISSLEPEDFAVYYCQQWSINPRTFGGGTKVEIKR
B2: SB 249415: humanized anti-Factor IX mAb, heavy chain F9HZHC 1-1 (SEQ ID NO: 52), light chain F9HZLC 1-1 (SEQ ID NO: 57) (antibody, V domains shown)
VH: B1 VH with E46K, T74S, A97T
VL: B1 VL with R44K, L45P, L46W, I57V
B3: SB 249416: humanized anti-Factor IX mAb, heavy chain F9HZHC 1-1 (SEQ ID NO: 52), light chain F9HZLC 1-2 (SEQ ID NO: 62) (antibody, V domains shown)
VH: B1 VH with E46K, T74S, A97T
VL: B1 VL with R44K, L45P, L46W, I57V, F70Y
B4: SB 257731: humanized anti-Factor IX mAb, heavy chain F9HZHC 1-1 (SEQ ID NO: 52), light chain F9HZLC 1-3 (SEQ ID NO: 78) (antibody, V domains shown)
VH: B1 VH with E46K, T74S, A97T
VL: MGWSCIILFLVATATGVHSQIVLTQSPATLSLSPGERATLSCRASSSVNYMHWYQQRPGQAPKPWIYATSNLASGVPARFSGSGSGTDYTLTISSLEPEDFAVYYCQQWSINPRTFGGGTKVEIK
B5: SB 257732: humanized anti-Factor IX mAb, heavy chain F9HZHC 3-0 (SEQ ID NO: 89), light chain F9HZLC 3-0 (SEQ ID NO: 99) (antibody, V domains shown)
VH: MGWSCIILFLVATATGVHSQIQLVQSGSELKKPGASVKVSCKASGYTFTNYGMNWVRQAPGQGLEWMGWINTRNGKSTYVDDFKGRFVFSLDTSVSTAYLQISSLKAEDTAVYFCTREGNMDGYFPFTYWGQGTLVTVSS
VL: MGWSCIILFLVATATGVHSQIVLTQSPSSLSASVGDRVTITCRASSSVNYMHWYQQKPGKAPKPWIYATSNLASGVPSRFSGSGSGTDYTLTISSLQPEDFATYYCQQWSINPRTFGGGTKLEIKRTVV
B6: Chf9: mouse-human chimeric antibody directed against human Factor IX, chains F9CHLC and F9CHHC with BC2 variable regions (antibody)
heavy: QIQLVQSGPELKKPGETVKISCKASGYTFTNYGMNWVKQAPGKGLKWMGWINTRNGKSTYVDDFKGRFAFSLESSASTANLQIDNLKDEDTATYFCTREGNMDGYFPFTYWGQGTLVTVSA
light: QIVLSQSPAILSASPGEKVTMTCRASSSVNYMHWYQQKPGSSPKPWIYATSNLASGVPARFSGSGSGTSYSLTISRVEAEDAATYYCQQWSINPRTFGGGTKLEIK
B7: IX LC/VII HC: construct containing the Factor IX light chain and Factor VII heavy chain (protein)
chain: YNSGKLEEFVQGNLERECMEEKCSFEEAREVFENTERTTEFWKQYVDGDQCESNPCLNGGSCKDDINSYECWCPFGFEGKNCELDVTCNIKNGRCEQFCKNSADNKVVCSCTEGYRLAENQKSCEPAVPFPCGRVSVSQTSKLTRIVGGKVCPKGECPWQVLLLVNGAQLCGGTLINTIWVVSAAHCFDKIKNWRNLIAVLGEHDLSEHDGDEQSRRVAQVIIPSTYVPGTTNHDIALLRLHQPVVLTDHVVPLCLPERTFSERTLAFVRFSLVSGWGQLLDRGATALELMVLNVPRLMTQDCLQQSRKVGDSPNITEYMFCAGYSDGSKDSCKGDSGGPHATHYRGTWYLTGIVSWGQGCATVGHFGVYTRVSQYIEWLQKLMRSEPRPGVLLRAPFP
B8: IX-A/VII: construct with the Factor IX gla and aromatic stack domains in Factor VII (protein)
chain: YNSGKLEEFVQGNLERECMEEKCSFEEAREVFENTERTTEFWKQYVDGDQCASSPCQNGGSCKDQLQSYICFCLPAFEGRNCETHKDDQLICVNENGGCEQYCSDHTGTKRSCRCHEGYSLLADGVSCTPTVEYPCGKIPILEKRNASKPQGRIVGGKVCPKGECPWQVLLLVNGAQLCGGTLINTIWVVSAAHCFDKIKNWRNLIAVLGEHDLSEHDGDEQSRRVAQVIIPSTYVPGTTNHDIALLRLHQPVVLTDHVVPLCLPERTFSERTLAFVRFSLVSGWGQLLDRGATALELMVLNVPRLMTQDCLQQSRKVGDSPNITEYMFCAGYSDGSKDSCKGDSGGPHATHYRGTWYLTGIVSWGQGCATVGHFGVYTRVSQYIEWLQKLMRSEPRPGVLLRAPFP

System: rat carotid artery thrombosis
Test: Rat carotid artery thrombosis model, humanized mAbs, Example 8
Assay type: in vivo
Settings: 3.0 mg/kg i.v. bolus, 60 minutes after onset of injury
Method: In order to evaluate the efficacy of humanized anti-Factor IX antibodies in prevention of arterial thrombosis, the rat carotid artery thrombosis model as described above in Example 3 was used. Baseline parameters were established for carotid blood flow, arterial pressure, heart rate, vessel patency and activated partial thromboplastin time (aPTT). Fifteen minutes thereafter, carotid injury was effected for […]. The parameters were determined 60 minutes after onset of carotid injury. Carotid thrombus was also extracted from the carotid artery and weighed.
All agents were administered intravenously 15 minutes before the onset of carotid injury. The following treatments were examined and compared to the anti-Factor IX mAb BC2.

Row | Molecule | effect on aPTT (FIG. 8)
1 | B1 | modest effect
2 | B2 | modest effect
3 | B3 | modest effect
4 | B4 | modest effect

Target: T1, Recombinant human Factor IX (rhFIX) (Homo sapiens, UniProt P00740, T194A)
T1 construct: purchased Genetics Institute
T1 sequence (P00740 47-461 T194A): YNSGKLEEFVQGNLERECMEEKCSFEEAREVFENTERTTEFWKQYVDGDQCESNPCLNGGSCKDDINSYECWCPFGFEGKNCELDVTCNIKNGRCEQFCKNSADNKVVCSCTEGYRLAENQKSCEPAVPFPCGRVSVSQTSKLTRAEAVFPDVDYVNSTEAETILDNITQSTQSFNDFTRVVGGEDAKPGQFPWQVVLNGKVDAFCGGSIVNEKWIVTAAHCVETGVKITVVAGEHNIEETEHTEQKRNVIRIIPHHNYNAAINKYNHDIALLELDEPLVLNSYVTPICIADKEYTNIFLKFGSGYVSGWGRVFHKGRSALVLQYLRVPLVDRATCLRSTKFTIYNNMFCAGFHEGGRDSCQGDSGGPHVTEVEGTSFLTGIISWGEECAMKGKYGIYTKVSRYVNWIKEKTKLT
Test: BIAcore kinetics of Factor IX binding to mAb on protein A surface
Settings: rhFIX 49 nM, 5 mM Ca2+, biosensor
Method: The kinetics of Factor IX binding to SB 249417 was assessed by BIAcore analysis with antibody bound to an immobilized protein A surface. Recombinant human Factor IX (rhFIX, Genetics Institute) at 49 nM was used and measurements performed in the presence of 5 mM Ca^2+. The interaction was characterized by rapid association, kass 2.0×10^5 M^−1 s^−1 and relatively slow off-rate, kdiss=4.1×10^−4 s^−1.

Row | Molecule | kass [M⁻¹ s⁻¹] | kdiss [s⁻¹]
5 | B1 | 650000 | 0.0028
6 | B2 | 750000 | 0.00018
7 | B3 | 520000 | 0.00041
8 | B4 | 920000 | 0.00099
9 | B5 | 1.1e+06 | 0.0012
10 | B6 | 240000 | 0.0003

System: BC2 antibody
Test: BiaCore binding of Factor IX/Factor VII constructs to immobilized BC2
Settings: 200 nM construct, 25 mM MOPS pH 7.4, 0.15 M NaCl, 5 mM CaCl2
Method: A library of chimeric constructs composed of sequences of Factor IX spliced into the framework of the homologous protein Factor VII was constructed and used to map the epitope for the Factor IX BC2 mAb. See Cheung et al., Thromb. Res. 80, 419-427 (1995). Binding was measured using a BiaCore 2000 surface plasmon resonance device. The BC2 antibody was coupled directly to the chip using the NHS/EDC reaction. Binding was measured by 2 min of contact time at 20 uL/min with 200 nM of each of the given constructs in 25 mM MOPS, pH 7.4, 0.15 M NaCl, 5 mM CaCl2. Dissociation was monitored for 3 min using the same buffer with no protein. No binding was detected to the wild type construct in the presence of 50 mM EDTA.

Row | Molecule | Degree of Binding to BC2
11 | B7 | exhibit binding to BC2; also recorded: Binds
12 | B8 | exhibit binding to BC2; also recorded: Binds

From patent US20020146411A1, “Anticoagulant agents useful in treatment of thrombosis” (SmithKline Beecham Corporation, priority 1996, published 2002)
